The source of these data is patent US6514698.

Series [1] has as its system M.CviRI DNA methyltransferase.
Series [2] has as its target T1, M.BamHI DNA methyltransferase (UniProt P23941).
T1 sequence: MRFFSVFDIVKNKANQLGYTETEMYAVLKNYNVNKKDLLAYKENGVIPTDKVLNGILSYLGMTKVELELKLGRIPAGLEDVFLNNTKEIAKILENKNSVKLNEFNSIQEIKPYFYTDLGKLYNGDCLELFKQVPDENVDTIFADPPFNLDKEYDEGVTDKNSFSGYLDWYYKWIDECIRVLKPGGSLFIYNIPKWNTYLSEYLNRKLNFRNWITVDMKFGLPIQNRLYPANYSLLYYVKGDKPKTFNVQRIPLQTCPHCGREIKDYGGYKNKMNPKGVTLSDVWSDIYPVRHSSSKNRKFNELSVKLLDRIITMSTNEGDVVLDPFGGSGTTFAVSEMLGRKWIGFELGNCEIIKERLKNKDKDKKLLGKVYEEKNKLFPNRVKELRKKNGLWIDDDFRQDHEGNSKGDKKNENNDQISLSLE

Series [3] addresses T2, M.EcoRI DNA methyltransferase (UniProt P00472).
T2 sequence: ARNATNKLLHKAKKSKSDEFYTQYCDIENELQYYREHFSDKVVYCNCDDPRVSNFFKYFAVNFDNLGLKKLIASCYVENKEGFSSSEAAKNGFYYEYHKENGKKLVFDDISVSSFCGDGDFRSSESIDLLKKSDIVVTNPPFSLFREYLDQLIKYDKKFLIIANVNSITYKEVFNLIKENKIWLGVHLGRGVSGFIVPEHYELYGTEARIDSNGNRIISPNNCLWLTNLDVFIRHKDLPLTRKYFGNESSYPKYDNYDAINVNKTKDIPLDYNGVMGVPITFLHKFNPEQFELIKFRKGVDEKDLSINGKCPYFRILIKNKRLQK

Series [4] has as its target M.HaeIII DNA methyltransferase (UniProt P20589). The settings on record: background 615.
Where [5] appears, read: 3H-methyl-SAM, 23 C, 5 mM EDTA, no MTase 574.

Where two headings read alike, the source gives them in different places.

Turning to “GGTGGGAGAAGAAGATAAAAAGTAACATCTTTCTGCCTTCCAGATGATTCGAAGAATTTCTCCATCCAAGTGCGGCAGGTGGAGGATTGCCCTGTGGACATCTACTACTTGATGGACCTGTCTTACTCCATGCCGGATGATCTGTGGAGCATCCAGAACCTGGGTACCAAGCTGGCCACCCAGATGCGAAAGCTCACCAGTAACCTGCGGATTGGCTTCGGGGCATTTGTGGACAAGCCTGTGTCACCATACATGTATATCTCCCCACCAGAGGCCCTCGAAAACCCCTGCTATGAGTAAGTCCCTCCTCCAGACGCCAGGACAGCATCCTTTGCCCAGGAAGGTCCAAGTCCTGGTTCCTA (double strand) [GPIIIa Yuka/a 362 bp amplicon]”, the activity in series [1] (background 472) turned out to be 506 cpm.
As for “GGTGGGAGAAGAAGATAAAAAGTAACATCTTTCTGCCTTCCAGATGATTCGAAGAATTTCTCCATCCAAGTGCGGCAGGTGGAGGATTGCCCTGTGGACATCTACTACTTGATGGACCTGTCTTACTCCATGCCGGATGATCTGTGGAGCATCCAGAACCTGGGTACCAAGCTGGCCACCCAGATGCGAAAGCTCACCAGTAACCTGCGGATTGGCTTCGGGGCATTTGTGGACAAGCCTGTGTCACCATACATGTATATCTCCCCACCAGAGGCCCTCGAAAACCCCTGCTATGAGTAAGTCCCTCCTCCAGACGCCAGGACAGCATCCTTTGCCCAGGAAGGTCCAAGTCCTGGTTCCTA (double strand) [GPIIIa Yukb/b 362 bp amplicon]”, the activity in series [1] (3H-methyl-SAM, 23 C, 5 mM EDTA, background 501) was 12200 cpm.
Take “pBluescript 191 bp amplicon predigested with BamHI”: the activity in series [2] (site cleaved, background 661) was 999 cpm; in series [3] (background 661), 32800 cpm.
As for “pBluescript 191 bp amplicon predigested with EcoRI”, the activity was determined as 1310 cpm in series [2] (background 750, nearby frayed EcoRI end interferes) and 770 cpm in series [3] (site cleaved, background 750).
With “pBluescript SK+ polylinker 191 bp amplicon”, the figures for the activity in series [2] (setting [5]) and in series [3] (setting [5]) were 69700 cpm and 85000 cpm, respectively.
With pUC19, the results for the activity in series [4] and in series [1] (background 615) were 26200 cpm and 118000 cpm, respectively.
